Assay [1] has as its target T1, recombinant human IGF-IR (rhIGFIR) (human, UniProt P08069 31-932, limits assumed).
T1 construct: Bought; also called immobilized IGF-IR
The assay is described as follows: SPR (BIAcore), immobilized IGF-IR.

The target of the next assay is T2, purified EGFR (Sigma) (human, UniProt P00533 25-1210, limits assumed).
T2 construct: Bought; purified from human A431 cells; also called solid phase coated EGFR

For assay [2], the target named is T3, EGFR expressed on cells and on A431 derived membrane vesicles (human, UniProt P00533 25-1210).
T3 construct: whole, on cells; Used for assays on whole cells and on immobilised A431 membrane vesicles; also called EGF receptor; EGFR harboring A431 vesicles

B1: PMP1C7 (VHH)
VHH: QVKLEESGGGLVQAGGSLRLSCVASGRTFSRTAMAWFRQAPGKEREFVATITWNSGTTRYADSVKGRFFISKDSAKNTIYLEMNSLEPEDTAVYYCAATAAAVITPTRGYYNYWGQGTQVTVSS
notes: Anti-IGF-IR Nanobody; tag not described; also called IGFRPMP1C7
For B1, in assay [1], the off-rate (koff) was found to be 0.0019 s⁻¹.

B2: PMP7A5 (VHH)
VHH: EVQLVESGGGLVQAGGSLRLSCAASDRTFSSNNMGWFRQAPGKEREFVAAIGWGGLETHYSDSVKGRFTISRDNAKNTVYLQMNSLKPEDTARYYCAVSSTRTVIYTLPRMYNYWGQGTQVTVSS
notes: Anti-EGFR Nanobody; tag not described; also called EGFRPMP7A5
Take B2: the off-rate (koff) in the assay with purified EGFR (Sigma) is not above 0.0017 s⁻¹.

B3: PMP38G7 (VHH)
VHH: EVQLVESGGGLVQAGGSLRLSCAASGRTFSSYVMGWFRQATGKEREFVATIAWDSGSTYYADSVKGRFTISRDNAKNTVHLQMNSLKPEDTAVYYCAASYNVYYNNYYYPISRDEYDYWGQGTQVTVSS
notes: also called Nanobody family VIII
Consider B3, for which the koff with purified EGFR (Sigma) is not above 0.0017 s⁻¹.

B4: PMP7E12 (VHH)
VHH: EVQLVESGGGLVQAGGSLRLSCTASGRTFENNAMAWFRQAAGKEREFVAGFSGSGGATYYAHSVEGRFTISRDNAKNTVDLQMNSLSLEDTAVYLCAARRKSGEVVFTIPARYDYWGQGTQVTVSS
notes: Anti-EGFR Nanobody
B4 returned a koff with purified EGFR (Sigma) not above 0.0017 s⁻¹.

B5: 27-10-E8 (VHH)
VHH: EVQLVESGGGLVQAGGSLRLSCAASGRTFSTYTMAWFRQAPGKEREFVQGISRSDGGTYDADSVKGRFTISRDNAKNTVYLQMNSLKPEDTAVYFCAAASVKLVYVNPNRYSYWGQGTQVTVSS
notes: Anti-EGFR Nanobody, tested as periplasmic extract or IMAC purified protein; tag not described; also called Type A Nanobody
B5: the koff with purified EGFR (Sigma) is not above 0.0017 s⁻¹.

B6: PMP9C1 (VHH)
VHH: EVQLVESGGGLVQAGGSLRLSCAASGRTFSGFAMGWFRQAPGKEREFVAAISWSGGSLLYVDSVKGRFTISRDNAKNTVHLQMNSLKPGDTAVYYCAAMVGPPPRSLDYGLGNHYEYDYWGQGTQVTVSS
notes: Anti-EGFR Nanobody; tag not described; also called Nanobody family X; Type C Nanobody
Turning to B6, in assay [2], the binding result is on record as “binds”.

(Values after patent WO2007042289A2 (dated 2007).)
